First the molecules themselves.
B1: LINE1-mini (parent)
chain: GGCAGAGCUCAACACAGCGUGGCAAAGUGGCUGUGGCUAGACUGCC

Self-cleavage data for 56 variants are collected here from the RNAGym collection of RNA variant scans (doi:10.7554/elife.90254).

The variants in the data set derive from B1. Nature of the data set: self-cleavage, relative activity (ratio to wild type); higher = more cleavage; in vitro, sequencing; the parent is a self-cleaving ribozyme.
On to GGCAGUGCUCAACACAGCGUGGCAAAGUGGCUCUGGCUAGACUGCC, for which the self-cleavage turned out to be 0.43.
In the case of GGCAGUGCUCAACACAGCGUGGCAAAGUGGCUAUGGCUAGACUGCC, the self-cleavage is 0.1.
To GGCAGUGCUCAACACAGCGUGGCAAAGUGGCUUUGGCUAGACUGCC belongs 0.16; to GGCAGUGCUCAACACAGCGUGGCAAAGUGCCUGUGGCUAGACUGCC, 1.36.
In the case of GGCAGUGCUCAACACAGCGUGGCAAAGUGACUGUGGCUAGACUGCC, the self-cleavage was 1.65.
GGCAGUGCUCAACACAGCGUGGCAAAGUGUCUGUGGCUAGACUGCC: the self-cleavage was determined as 1.27.
Turning to GGCAGUACUCAACACAGCGUGGCAAAGUGGCUGUGGCUAGACUGCC, the self-cleavage was 0.26.
Consider GGCAGUUCUCAACACAGCGUGGCAAAGUGGCUGUGGCUAGACUGCC, for which the self-cleavage is 0.14.
As for GGCAGUCCUCAACACAGCGUGGCAAAGUGGCUGUGGCUAGACUGCC, the self-cleavage is 0.19.
To GGCAGUGCUCAACACAGCGUGGCAAAGUGGCUGUCGCUAGACUGCC belongs 0.16; to GGCAGUGCUCAACACAGCGUGGCAAAGUGGCUGUUGCUAGACUGCC, 0.2; to GGCAGUGCUCAACACAGCGUGGCAAAGUGGCUGUAGCUAGACUGCC, 0.12.
For GGCAGUGCUCAACACAGCGUGGCAAAGGGGCUGUGGCUAGACUGCC, the self-cleavage was determined as 0.6.
The same measure for GGCAGUGCUCAACACAGCGUGGCAAAGCGGCUGUGGCUAGACUGCC: 0.74; for GGCAGUGCUCAACACAGCGUGGCAAAGAGGCUGUGGCUAGACUGCC: 0.4; for GGCAGAACUCAACACAGCGUGGCACAGUGGCUGUGGCUAGACUGCC: 0.14.
To GGCAGAACUCAACACAGCGUGGCAGAGUGGCUGUGGCUAGACUGCC belongs 0.12.
To GGCAGAACUCAACACAGCGUGGCAUAGUGGCUGUGGCUAGACUGCC belongs 0.25.
As for GGCAGAACUCACCACAGCGUGGCAAAGUGGCUGUGGCUAGACUGCC, the self-cleavage came to 0.02.
To GGCAGAACUCAUCACAGCGUGGCAAAGUGGCUGUGGCUAGACUGCC belongs 0.15.
The same measure for GGCAGAACUCAGCACAGCGUGGCAAAGUGGCUGUGGCUAGACUGCC: 0.05; for GGCAGUGCUCAACACAGCGGGGCAAAGUGGCUGUGGCUAGACUGCC: 0.55.
The same measure for GGCAGUGCUCAACACAGCGAGGCAAAGUGGCUGUGGCUAGACUGCC: 0.37; for GGCAGUGCUCAACACAGCGCGGCAAAGUGGCUGUGGCUAGACUGCC: 0.3.
With GGCAGUGCUCAACACAGCGUGGCAAAGUGGCAGUGGCUAGACUGCC, the self-cleavage was found to be 0.15.
To GGCAGUGCUCAACACAGCGUGGCAAAGUGGCGGUGGCUAGACUGCC belongs 0.13; to GGCAGUGCUCAACACAGCGUGGCAAAGUGGCCGUGGCUAGACUGCC, 0.1.
The same measure for GGCAGAACUCAACACAGCGUGGCAAAGUGGCUGUGGCUCGACUGCC: 0.08; for GGCAGAACUCAACACAGCGUGGCAAAGUGGCUGUGGCUUGACUGCC: 0.25.
The same measure for GGCAGAACUCAACACAGCGUGGCAAAGUGGCUGUGGCUGGACUGCC: 0.07; for GGCAGUGCUCAACACAGCGUGGCAAAGUGGCUGUGGCUAGAUUGCC: 0.42; for GGCAGUGCUCAACACAGCGUGGCAAAGUGGCUGUGGCUAGAGUGCC: 0.05.
For the variant GGCAGUGCUCAACACAGCGUGGCAAAGUGGCUGUGGCUAGAAUGCC, the self-cleavage came to 0.17.
As for GGCAGUGCUCAACACAGCGUGGCAAACUGGCUGUGGCUAGACUGCC, the self-cleavage was found to be 0.38.
On to GGCAGUGCUCAACACAGCGUGGCAAAAUGGCUGUGGCUAGACUGCC, for which the self-cleavage amounted to 0.42.
To GGCAGUGCUCAACACAGCGUGGCAAAUUGGCUGUGGCUAGACUGCC belongs 0.58.
The same measure for GGCAGAACUCAACACAGCGUGGCAAAGUGGCUGUGGCUAGUCUGCC: 0.18; for GGCAGAACUCAACACAGCGUGGCAAAGUGGCUGUGGCUAGCCUGCC: 0.21; for GGCAGAACUCAACACAGCGUGGCAAAGUGGCUGUGGCUAGGCUGCC: 0.12.
To GGCAGUGCUCAACACAGUGUGGCAAAGUGGCUGUGGCUAGACUGCC belongs 0.93.
With GGCAGUGCUCAACACAGCCUGGCAAAGUGGCUGUGGCUAGACUGCC, the self-cleavage came out at 0.45.
The same measure for GGCAGUGCUCAACACAGCAUGGCAAAGUGGCUGUGGCUAGACUGCC: 0.64; for GGCAGUGCUCAACACAGCUUGGCAAAGUGGCUGUGGCUAGACUGCC: 0.46; for GGCAGUGCUCAACACAGCGUGGCAAAGUGGCUGUGGCUAGACUACC: 0.64.
The same measure for GGCAGUGCUCAACACAGCGUGGCAAAGUGGCUGUGGCUAGACUUCC: 0.54; for GGCAGUGCUCAACACAGCGUGGCAAAGUGGCUGUGGCUAGACUCCC: 0.75.
To GGCAGAACUAAACACAGCGUGGCAAAGUGGCUGUGGCUAGACUGCC belongs 0.05.
For the variant GGCAGAACUGAACACAGCGUGGCAAAGUGGCUGUGGCUAGACUGCC, the self-cleavage is 0.02.
To GGCAGUGCUCAACACAGCGUGGCAAAGUGGAUGUGGCUAGACUGCC belongs 0.38; to GGCAGUGCUCAACACAGCGUGGCAAAGUGGGUGUGGCUAGACUGCC, 0.13.
Take GGCAGUGCUCAACACAGCGUGGCAAAGUGGUUGUGGCUAGACUGCC: the self-cleavage was found to be 0.31.
With GGCAGAAGUCAACACAGCGUGGCAAAGUGGCUGUGGCUAGACUGCC, the self-cleavage was determined as 0.17.
The same measure for GGCAGAAUUCAACACAGCGUGGCAAAGUGGCUGUGGCUAGACUGCC: 0.43.
To GGCAGAAAUCAACACAGCGUGGCAAAGUGGCUGUGGCUAGACUGCC belongs 0.35.
For GGCAGUGCUCAACACAGCGUGGCAAAGUGGCUGUGGCUAGACUGCA, the self-cleavage is 0.74.
To GGCAGUGCUCAACACAGCGUGGCAAAGUGGCUGUGGCUAGACUGCU belongs 0.75.
